Experimental data reported in a protein production outcome set (Wang et al. 2014).

Test: label from the status in PepcDB records

Sequence | protein production
MDGALRNRSARVVDSEHRTHPPGIRRSVCWSLLALDSRLHGRTSTQDRQVGCGRLWCRPSEARCGAMKLLVTGGGGFLGQALCRGLRARGHEVVSFQRGNYPVLRSLGVGQIRGDLADPQAVRHALAGIDAVFHNAAKAGAWGSYDSYHQANVVGTQNVIEACRATGVPRLIYTSTPSVTHRATNPVEGLGADEVPYGDNLRAAYAATKAIAERAVLAANDAQLATVALRPRLIWGPGDNHLLPRLAARARAGRLRMVGDGSNLVDSTYIDNAAQAHFDAFEHLAVGAACAGKAYFISNGEPLPMRELLNRLLAAVDAPAVTRSLPFKTAYRIGAVCETLWPLLRLPGEVPLTRFLVEQLCTPHWYSMQPARRDFGYVPRISIEEGLQRLRSSSSNDIAITG | failed
MEMYFKRMKDEWTGLVEQADPPIRAKAAEIAVAHAHYLSIEFYRIVRIDPHAEEFLSNEQVERQLKSAMERWIINVLSAQVDDVERLIQIQHTVAEVHARIGIPVEIVEMGFRVLKKILYPVIFSSDYSAAEKLQVYHFSINSIDIAMEVMTRAFTFSDSSASKELEHHHHHH | not failed
MIITVASFKGGVGKTTTAVHLSAYLALQGETLLIDGDPNRSATGWGKRGSLPFKVVDERQAAKYAPKYQNIVIDTQARPEDEDLEALADGCDLLVIPSTPDALALDALILTIETLQKLGNNRFRILLTIIPPYPSKDGDEARQLLTTAGLPLFKRGIKRYSAFQKASLNGVVVSEVSDSKAGIAWSDYKATGKEIVEEILILEHHHHHH | not failed
MSKCGVRARLLGLCTERASAWAMALIALVAGGLLTAALAFAAHTFYKQQLRQRFELLASERASRIAERFDEQQQRLDGLRRFFSFSSEITPREFDGYARPLLQRTLAYAWAPRVEAAQRAEFERLASAHTGPGYVIRDQDAQGQWRPASQRDHYFPVLYTQSSERPGLPYGLDLAGQSEPQAALARALAPALAPGSMAVSEPLALFDTQSAERGLLMVAPVFSDADPRGAAVGYVMALLSMRELVSDGRPVAVDDNLVVRITDPSGLQGPVVLFDSQNPVAPLALASNQLLRLADHHFQLSIQPSQAFAQANRSSAVMAVGLLGGLLSLLLSVLLYSLFSQRQRALALVAQRTAELQVSEQSLRGTHNQLRSVLDAATQVAIIATNLKGVVSTFNAGAERMLGYAASEAIGRLRLEDLVLPEELNLRAQALSLRFGRAIAGGQAMFAETVQEHGAEPGEWTLLRADGSQLVANMLVTAMLDEQGLWVGYLAICIDVTERRRVHEALAARDRLLEKLSAEVPGGIYQYRLDANGHSCFPYASMGLYDIYEIDLMQLREDASAVFERIHPDDLERVRRSVRYSAEHLSPWREEYRVCLPRAGLRWVRGEATPEVGEQGCTLWHGYLTDISDLKGVEEELRALSVTDSLTGIHNRRYFQERLKIELERAQRDGLPLAVIMLDIDHFKRINDRFGHAVGDRVLRSLCQRIAQRLRRTDVFCRLGGEEFMVLCPGSDANQARLLALELWQGVRNVPVEGVGQVTASFGVAGWRSGEGADALLLRADAGVYAAKQAGRDRVEGEPV | failed
MAARRAPISRRDRPAKPALSRRWIVDTAVALMRAEGLEKVTMRRLAQELDTGPASLYVYVANTAELHAAVLDALLGEVDLTGAGAEEDWREQLRAVLTSYTLVLFAHPQLARSALVARPSGENYLRLVERVLELLARSGAPGAQVAWGVDKLLQDATATAAEQATQEHDPASHEDWSATVRALRDADEATHPAIASHMPLLVAGSAHDRLRWSFDVLVNGITRTPVPGPARGAAG | not failed
MTRVQANMLLLLAAAIWGGGFVAQSSAMSSIGPFWFVGLRFAIAAIAVLPFALMETRSLKSPPRRREIGSFILVGLALFGGATTQQVGLLTTTVTNSSFLTGLYVIFVPVIAVVLYRRHPHWVVWPCALMMLGGIFLLSGGAFETLTTGDILSIICAFFWAIQITLAGRFVSESGRPLALSFTQFAVCSLLSCMIGVVFEPISMAAIEASMMEILYVGLVSSGLAFVLQVIGQRYTTAPQAAIFLSSEALFGALMASIFLKETISSAGYVGCLIIFVAILIVELVPELTRKRQKTVAEAS | failed
MADIQGEDLESLYGYAKQLFDGGEIAAARNVYQLLSTLDHWNFDYLLALGLCHQRLGAHNEAVVCFGRAGLIKVDDPRAAFYAGISYRLDGNAEYASKAFKAAINWCGEQIDYQAIKASAVDMLALQQEEVPLEHHHHHH | not failed
MSWESINSKDLLSIPPSQNLSATRLLTSPDGSRYLLENSSDLCHLDESFSRLAGYGSSPDVGSRSVWASQALLRSGSVISCFLSCQQSLRQYIAKRKIERGRRLYEQNNQTEAVRTWRSALKGTCQREDCFQLLGYLYQAHMDWGKFREAIEFSHQQLGISEELDSPNMRAETYLNLSRAHASLGGLERSLSYARHSLYNECGTKCRSGLVHLTVARVYLEMGGFSRALEGLQGAYKIATAIGDPSLELQVYVALSELFGRLQDNDKSATYASKAYDLSRSLQLGDLNSCHHRAALLRMAVSLRKQGELGDAQDYCKEATKLSLISGDQATYTRSIRVMGDIYRNKMDMDRAFRQYEQAMGTSASLGDRMAQMEAMDGAARCLETLRLQNKICNCRPLEFNTRLLEVASSIGAKFLVRKIRCRLALIYRALGDEDQYNTHFRLANQTDAALGLNCGACGELLGLRPENLEALPCAHILHARCAYEILRRREKNAPRSCPACNKLISSRTHFCGSVPVESESTDRCVTAASTFNTNSLSVDGLLGINSDILLPSAAFCYVKNPALDTENSALLSPKVIYHSNLSLASLSMRASSLTIDSGQNVTSSV | failed
MKETTIYGRLVMAVKNTAQVVIGGKIITLGGYESEEYFQKVASYINNKIAELSEMPGYTRQPVETKHTLLSLNVTDDYFKAKKQAEIFEQDLQQKDQEMYELKHELIALRMKIEETEKNAQEAQQQKELLEGKVKELNDEIDKLLK | not failed
MRNLIISAALVAASLFGMSAQAAEPIESGKQYVELTSAVPVAVPGKIEVIELFWYGCPHCYAFEPTINPWVEKLPSDVNFVRIPAMFGGPWDAHGQLFITLDTMGVEHKVHAAVFEAIQKGGKRLTDKNDMADFVATQGVNKDDFLKTFDSFAVKGKIAQYKELAKKYEVTGVPTMIVNGKYRFDLGSAGGPEKTLQVADQLIDKERAAAKAAK | failed
MSKHLCFTAFSSIALFLLCFSSWASAVAPAEINEARLVAQYNYSINILAMLLVGFGFLMVFVRRYGFSATTGTYLVVATGLPLYILLRANGIFGHALTPHSVDAVIYAEFAVATGLIAMGAVLGRLRVFQYALLALFIVPVYLLNEWLVLDNASGLTEGFQDSAGSIAIHAFGAYFGLGVSIALTTAAQRAQPIESDATSDRFSMLGSMVLWLFWPSFATAIVPFEQMPQTIVNTLLALCGATLATYFLSALFHKGKASIVDMANAALAGGVAIGSVCNIVGPVGAFVIGLLGGAISVVGFVFIQPMLESKAKTIDTCGVHNLHGLPGLLGGFSAILIVPGIAVAQLTGIGITLALALIGGVIAGALIKLTGTTKQAYEDSHEFIHLAGPEDEHKAERLVLEAKTEIQGLKNRIDAAVLSAKSEG | not failed
MIRKWDTKDTAPLLALWLDSTIHAHPFISESYWRDSVAVVRDVYLPAASTWVWEQDGELKGFVSVLDSRFVGALFVAPGATRQGIGRALLDEVKQHYAWLSLEVYQKNESAVSFYHAQGFRIEDCAWQDDTQHPTWIMRWPA | not failed
TEQGLQKVLQRLVQTMQRDALVRQTTNQLRESLQVDRVVLYYFYWQWHGQVTFEALSSEEFSILGSTGADECFNDEYAALYLAGRTKAIADIESEPITTCHRDFLRTLQVRANLVVPVLVPKGLWGLLVAHHCQGTHDWKESDIELMQAGAKTLA | failed
MVSKECCRNEIRAAIRQLSDRCLYSAAKWAGEQLVGIEQDPSNFTPANTRFQRGSSSIRRRFSTNESISTPLPSVGFSQAATPLPEEDEAIDGDIYLLAKSYFDCREYRRASHMLRDQVSKKSLFLRYYALYLAGEKRKEEEMIELEGPLGKSDAINRELVSLERDLSALRRTGAIDSFGLYLYGVVLKEKGNESLARASLVESVNSYPWNWSAWSELQSLCTSIEILNSLNLNNHWMKEFFLGNAYQELRMHTESLAKYEYLQGIFSFSNYIQAQTAKAQYSLREFDQVEIMFEELLRNDPYRVEDMDLYSNVLYAKEACAALSYLAHKVFLTDKYRPESCCIIGNYYSLKGQHEKAVMYFRRALKLNKKYLSAWTLMGHEYVEMKNTPAAIDAYRRAVDINPTDYRAWYGLGQAYEMMGMPFYALHYFRKSIFFLPNDSRLWIAMAKCYQTEQLYMLEEAIKCYKRAVNCTDTEGIALNQLAKLHQKLGRNEEAAYYFEKDLERMDAEGLEGPNMFEALVFLATHFKNHKKFEEAEVYCTRLLDYSGPEKEKAKSLLRGIRMAQTGFPSMDLEHFPI | failed
MDDISVSKSNHGNVVVLNIKASSLADTSLPSNKHESSSPPLLSVHFLQKLLAELVGTYYLIFAGCAAIAVNAQHNHVVTLVGIAVVWGIVIMVLVYCLGHLSAHFNPAVTLALASSQRFPLNQVPAYITVQVIGSTLASATLRLLFDLNNDVCSKKHDVFLGSSPSGSDLQAFVMEFIITGFLMLVVCAVTTTKRTTEELEGLIIGATVTLNVIFAGEVSGASMNPARSIGPALVWGCYKGIWIYLLAPTLGAVSGALIHKMLPSIQNAEPEFSKTGSSHKRVTDLPL | failed
MEESATVEVVVGRVGRAHGLRGDVVVEVRTDEPDARFGVGATVQIEGSRRDLTVVRSRWAKGCLIVAFDEVKDRQGAEELRGSVLVVDVEPNDDPDDPDEFWDRRLRGLTVVDESGKSRGAVKDVLHMPAQDVLVIDVSGEEHLVPFVHQLVPTVDVASGRIVVSGIPGLLDSNAEEAR | failed
MSLQTLLFSFQGRIGRQAFWLWNICYYAMIAGFAMGSNLLFPDVAHLILPVFLLVVLVPDLAITAKRWHDRDKSSWWLLLNVPLVIGRMTIPAGELAVNTQPGMLETLISFVALLCGAWILVECGFLSGTDGSNRFGAEPKWIKKS | failed
MNKMNNNILKKNDLSSQEESTHEIQDVLDQLDFYTYKIALFLDIDGTLADFKIDPLACFISKKILKSIQDIQSKGCLVSVITGRDYNSAQKLLADVSLPIAALHGLDIHINEKTQLNAINQNNQIFIQNFLCRLKEEIKYQPDLSIENKHHSIALHYRKNPDLYDIAKHIMNTVKKDNDEFKVIEGKYVFELIPKNSNKGSAIKTLLSYFDAEHYLSIFIGDDITDEDGFNMVNQLEGISIKVGSGKTVARFRLKNIEHVEEFLNLLSHHFPDSSTQITKKYGEQHV | failed
MLEVHIPSVGPEAEGPRQSPEKSHMVFRVEVLCSGRRHTVPRRYSEFHALHKRIKKLYKVPDFPSKRLPNWRTRGLEQRRQGLEAYIQGILYLNQEVPKELLEFLRLRHFPTDPKASNWG | not failed
MPGDTENTSTDTTNEHIDLALYRQLVKQFIDMRRYSTALFWAEKVAVLGGLEPRDIYYQAQCMYLLGEYHRAAHTIQHHKLEKNSLPCFNLLLESLYAAKEFTEAANVIQNVEVEVMTTSLINQPVDASSGCYLESNSVFGGEENHRNELLSSIYLMKGKVYEALDNRGMAMDFYVQALHKSIYCFEALEALVQHEMLMAWEEFELMHHLPLAQQSSEADAKFILKLYESRLKKYYELISARNAEEMSPIVNPDILQFIKEFTARVQQSGSSDTQMPKVSAVKVPLTPSQFMSPAQKVLEDLKAPTFSLQTSLSKASSLIDASHRSMFDSSSRRRSRDHDTDTLIPIAECLDRVQRSTDLMAAEAEKCFYDCDYKQCLKILNELLKVDPFHNTALTIQIACLVENGDFNRLFYVAHKLVDRYPDKAISWYAVGCYYDMIGKSDPARRYLSKATALDRLYGPAWLAYGHSFANENEHEQAMAAYFKATQLMRGCHLPLLYIGVECGLTKNLELAEKFFLQAMNIAPLDVYVLHELGVIKYEYEFFDGAATIFQCTVDIVKQRAKSNNEEISSRWEPLFINLGHSLRKVHKYEEALYNFQYALLLKPQSPTTYTSIGFIHALLGNLDPAIEAFHKSLALNRDCIVTSTILKSCIEDLMDDSATIDEICSAALRDVAKNITANSRRVLNSDKFNGMKLKFDEEEEFANSDSNMVVEMSFDT | failed
